{
  "source": "paper PMC10288270",
  "about": "“Study on the Role of an Erythrocyte Membrane‐Coated Nanotheranostic System in Targeted Immune Regulation of Alzheimer's Disease”",
  "binders": {"B1": {"name": "Abeta aptamer (AAP) (structured_DNA)", "DNA": "TGGGGGGCGGACGATAGGGGCCCCCCGGTAGGATGGACG"}},
  "target": "Amyloid beta 1-42 (UniProt P05067 672-713)",
  "sequence (P05067 672-713)": "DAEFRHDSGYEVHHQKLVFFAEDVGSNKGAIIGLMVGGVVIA",
  "experiment": "fluorescence recovery (FAM/BHQ1 dequenching); Abeta 0-160 ug/mL, 2 h; TBS: 1 mM Tris-HCl, 100 mM NaCl, 4 mM MgCl2, 5 mM KCl, pH 7.4; 37 C, 2 h; aptamer refolded from 95 C; 2 uL of 10 uM aptamer",
  "settings": "protein: commercial; label: 5' 6-FAM, 3' BHQ1 as printed in Methods (Results text states FAM 3', BHQ 5'); hairpin (stated design)",
  "data": [
    {"binder": "B1", "values": [
      {"measurement": "binding result", "result": "binds"}
    ]}
  ]
}
